This note sets out measurements from patent US20200297818A1 (ZEALAND PHARMA A S, published 2020).

The target in assay [1] is human glucagon-like peptide 1 receptor (GLP-1 R) (human, UniProt P43220 24-463). In words: cell-based or functional assay.
Assay [2] has as its target T1, human GLP-2 receptor (hGLP2-R) (human, UniProt O95838 1-553).
T1 sequence (looked up): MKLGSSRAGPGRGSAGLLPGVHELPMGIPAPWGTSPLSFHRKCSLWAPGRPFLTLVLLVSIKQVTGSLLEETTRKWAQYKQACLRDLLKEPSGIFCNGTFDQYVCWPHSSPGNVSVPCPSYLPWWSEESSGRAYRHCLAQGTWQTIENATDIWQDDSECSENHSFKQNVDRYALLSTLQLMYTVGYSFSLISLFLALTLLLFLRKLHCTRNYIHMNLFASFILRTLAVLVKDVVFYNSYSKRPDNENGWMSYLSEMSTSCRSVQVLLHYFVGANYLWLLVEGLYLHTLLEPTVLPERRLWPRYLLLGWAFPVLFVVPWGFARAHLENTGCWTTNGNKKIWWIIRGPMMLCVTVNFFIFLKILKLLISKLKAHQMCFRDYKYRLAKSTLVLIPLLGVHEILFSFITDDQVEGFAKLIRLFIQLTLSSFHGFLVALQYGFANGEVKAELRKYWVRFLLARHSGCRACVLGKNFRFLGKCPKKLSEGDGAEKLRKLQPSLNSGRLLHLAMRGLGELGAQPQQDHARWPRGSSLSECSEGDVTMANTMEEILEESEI
In words: cell-based or functional assay.

B1: Compound 8 (peptide)
peptide: HXEGSFTSELATILDGXAARDFIAWLIEHKITD
HELM: PEPTIDE1{H.[Aib].E.G.S.F.T.S.E.L.A.T.I.L.D.G.K.A.A.R.D.F.I.A.W.L.I.E.H.K.I.T.D}|PEPTIDE2{[O=C(O)CCCCCCCCCCCCCCCCC(=O)[*:2]].[gGlu]}$PEPTIDE1,PEPTIDE2,17:R3-2:R2$$$V2.0
SMILES: CC[C@H](C)[C@H](NC(=O)[C@H](Cc1ccccc1)NC(=O)[C@H](CC(=O)O)NC(=O)[C@H](CCCNC(=N)N)NC(=O)[C@H](C)NC(=O)[C@H](C)NC(=O)[C@H](CCCCNC(=O)CC[C@H](NC(=O)CCCCCCCCCCCCCCCCC(=O)O)C(=O)O)NC(=O)CNC(=O)[C@H](CC(=O)O)NC(=O)[C@H](CC(C)C)NC(=O)[C@@H](NC(=O)[C@@H](NC(=O)[C@H](C)NC(=O)[C@H](CC(C)C)NC(=O)[C@H](CCC(=O)O)NC(=O)[C@H](CO)NC(=O)[C@@H](NC(=O)[C@H](Cc1ccccc1)NC(=O)[C@H](CO)NC(=O)CNC(=O)[C@H](CCC(=O)O)NC(=O)C(C)(C)NC(=O)[C@@H](N)Cc1c[nH]cn1)[C@@H](C)O)[C@@H](C)O)[C@@H](C)CC)C(=O)N[C@@H](C)C(=O)N[C@@H](Cc1c[nH]c2ccccc12)C(=O)N[C@@H](CC(C)C)C(=O)N[C@H](C(=O)N[C@@H](CCC(=O)O)C(=O)N[C@@H](Cc1c[nH]cn1)C(=O)N[C@@H](CCCCN)C(=O)N[C@H](C(=O)N[C@H](C(=O)N[C@@H](CC(=O)O)C(=O)O)[C@@H](C)O)[C@@H](C)CC)[C@@H](C)CC
Turning to B1, the “EC50 GLP-1 (nM); cAMP response” value in assay [1] turned out to be 0.22 nM. In addition, in assay [2], the “EC50 GLP-2 (nM); cAMP response” value worked out at 0.039 nM.

B2: Compound 10 (peptide)
peptide: HXEGTFSSELATILDXLAARDFIAWLIEHKITD
HELM: PEPTIDE1{H.[Aib].E.G.T.F.S.S.E.L.A.T.I.L.D.K.L.A.A.R.D.F.I.A.W.L.I.E.H.K.I.T.D}|PEPTIDE2{[O=C(O)CCCCCCCCCCCCCCCCC(=O)[*:2]].[gGlu]}$PEPTIDE1,PEPTIDE2,16:R3-2:R2$$$V2.0
SMILES: CC[C@H](C)[C@H](NC(=O)[C@H](Cc1ccccc1)NC(=O)[C@H](CC(=O)O)NC(=O)[C@H](CCCNC(=N)N)NC(=O)[C@H](C)NC(=O)[C@H](C)NC(=O)[C@H](CC(C)C)NC(=O)[C@H](CCCCNC(=O)CC[C@H](NC(=O)CCCCCCCCCCCCCCCCC(=O)O)C(=O)O)NC(=O)[C@H](CC(=O)O)NC(=O)[C@H](CC(C)C)NC(=O)[C@@H](NC(=O)[C@@H](NC(=O)[C@H](C)NC(=O)[C@H](CC(C)C)NC(=O)[C@H](CCC(=O)O)NC(=O)[C@H](CO)NC(=O)[C@H](CO)NC(=O)[C@H](Cc1ccccc1)NC(=O)[C@@H](NC(=O)CNC(=O)[C@H](CCC(=O)O)NC(=O)C(C)(C)NC(=O)[C@@H](N)Cc1c[nH]cn1)[C@@H](C)O)[C@@H](C)O)[C@@H](C)CC)C(=O)N[C@@H](C)C(=O)N[C@@H](Cc1c[nH]c2ccccc12)C(=O)N[C@@H](CC(C)C)C(=O)N[C@H](C(=O)N[C@@H](CCC(=O)O)C(=O)N[C@@H](Cc1c[nH]cn1)C(=O)N[C@@H](CCCCN)C(=O)N[C@H](C(=O)N[C@H](C(=O)N[C@@H](CC(=O)O)C(=O)O)[C@@H](C)O)[C@@H](C)CC)[C@@H](C)CC
On to B2, for which the “EC50 GLP-1 (nM); cAMP response” value in assay [1] came to 1.8 nM. Moreover, the “EC50 GLP-2 (nM); cAMP response” value in assay [2] turned out to be 0.087 nM.

B3: Compound 11 (peptide)
peptide: HXEGSFTSELATILDXLAARDFIAWLIEHKITD
HELM: PEPTIDE1{H.[Aib].E.G.S.F.T.S.E.L.A.T.I.L.D.K.L.A.A.R.D.F.I.A.W.L.I.E.H.K.I.T.D}|PEPTIDE2{[O=C(O)CCCCCCCCCCCCCCCCC(=O)[*:2]].[gGlu]}$PEPTIDE1,PEPTIDE2,16:R3-2:R2$$$V2.0
SMILES: CC[C@H](C)[C@H](NC(=O)[C@H](Cc1ccccc1)NC(=O)[C@H](CC(=O)O)NC(=O)[C@H](CCCNC(=N)N)NC(=O)[C@H](C)NC(=O)[C@H](C)NC(=O)[C@H](CC(C)C)NC(=O)[C@H](CCCCNC(=O)CC[C@H](NC(=O)CCCCCCCCCCCCCCCCC(=O)O)C(=O)O)NC(=O)[C@H](CC(=O)O)NC(=O)[C@H](CC(C)C)NC(=O)[C@@H](NC(=O)[C@@H](NC(=O)[C@H](C)NC(=O)[C@H](CC(C)C)NC(=O)[C@H](CCC(=O)O)NC(=O)[C@H](CO)NC(=O)[C@@H](NC(=O)[C@H](Cc1ccccc1)NC(=O)[C@H](CO)NC(=O)CNC(=O)[C@H](CCC(=O)O)NC(=O)C(C)(C)NC(=O)[C@@H](N)Cc1c[nH]cn1)[C@@H](C)O)[C@@H](C)O)[C@@H](C)CC)C(=O)N[C@@H](C)C(=O)N[C@@H](Cc1c[nH]c2ccccc12)C(=O)N[C@@H](CC(C)C)C(=O)N[C@H](C(=O)N[C@@H](CCC(=O)O)C(=O)N[C@@H](Cc1c[nH]cn1)C(=O)N[C@@H](CCCCN)C(=O)N[C@H](C(=O)N[C@H](C(=O)N[C@@H](CC(=O)O)C(=O)O)[C@@H](C)O)[C@@H](C)CC)[C@@H](C)CC
As to B3, in assay [1], the “EC50 GLP-1 (nM); cAMP response” value turned out to be 0.32 nM. The “EC50 GLP-2 (nM); cAMP response” value in assay [2] amounted to 0.085 nM.

B4: Compound 9 (peptide)
peptide: HXEGTFTSELATILDGXAARDFIAWLIEHKITD
HELM: PEPTIDE1{H.[Aib].E.G.T.F.T.S.E.L.A.T.I.L.D.G.K.A.A.R.D.F.I.A.W.L.I.E.H.K.I.T.D}|PEPTIDE2{[O=C(O)CCCCCCCCCCCCCCCCC(=O)[*:2]].[gGlu]}$PEPTIDE1,PEPTIDE2,17:R3-2:R2$$$V2.0
SMILES: CC[C@H](C)[C@H](NC(=O)[C@H](Cc1ccccc1)NC(=O)[C@H](CC(=O)O)NC(=O)[C@H](CCCNC(=N)N)NC(=O)[C@H](C)NC(=O)[C@H](C)NC(=O)[C@H](CCCCNC(=O)CC[C@H](NC(=O)CCCCCCCCCCCCCCCCC(=O)O)C(=O)O)NC(=O)CNC(=O)[C@H](CC(=O)O)NC(=O)[C@H](CC(C)C)NC(=O)[C@@H](NC(=O)[C@@H](NC(=O)[C@H](C)NC(=O)[C@H](CC(C)C)NC(=O)[C@H](CCC(=O)O)NC(=O)[C@H](CO)NC(=O)[C@@H](NC(=O)[C@H](Cc1ccccc1)NC(=O)[C@@H](NC(=O)CNC(=O)[C@H](CCC(=O)O)NC(=O)C(C)(C)NC(=O)[C@@H](N)Cc1c[nH]cn1)[C@@H](C)O)[C@@H](C)O)[C@@H](C)O)[C@@H](C)CC)C(=O)N[C@@H](C)C(=O)N[C@@H](Cc1c[nH]c2ccccc12)C(=O)N[C@@H](CC(C)C)C(=O)N[C@H](C(=O)N[C@@H](CCC(=O)O)C(=O)N[C@@H](Cc1c[nH]cn1)C(=O)N[C@@H](CCCCN)C(=O)N[C@H](C(=O)N[C@H](C(=O)N[C@@H](CC(=O)O)C(=O)O)[C@@H](C)O)[C@@H](C)CC)[C@@H](C)CC
Regarding B4, in assay [1], the “EC50 GLP-1 (nM); cAMP response” value came out at 0.056 nM. Moreover, the “EC50 GLP-2 (nM); cAMP response” value in assay [2] came to 0.056 nM.
